Target: neutravidin (UniProt P02701)
Test: phage ELISA, neutravidin alone

Chain of neutravidin (P02701 25-152): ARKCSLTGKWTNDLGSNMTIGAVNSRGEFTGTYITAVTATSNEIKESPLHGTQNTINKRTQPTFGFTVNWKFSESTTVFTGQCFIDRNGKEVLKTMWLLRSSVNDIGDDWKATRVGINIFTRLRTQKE

Row | Binder | NAv bkgd
1 | GGNCHDPDIPAYVLCS (peptide, not shown: large carriers) [Phage clone J479B08 displaying Peptide-26] | 0.084
2 | GGLCPINDWEPQDICW (peptide, not shown: large carriers) [Phage clone J467F08 displaying Peptide-27] | 0.062
3 | GGLCMIGDWLPGDVCL (peptide, not shown: large carriers) [Phage clone J467D04 displaying Peptide-28] | 0.058
4 | GGEWCLFDPDVPTCQD (peptide, not shown: large carriers) [Phage clone J465F09 displaying Peptide-22] | 0.051
5 | GGDSVCADPEVPICEI (peptide, not shown: large carriers) [Phage clone J476C07 displaying Peptide-19] | 0.051
6 | GGIQCHDPDLPSPCYI (peptide, not shown: large carriers) [Phage clone J465E03 displaying Peptide-21] | 0.052
7 | GGMSDCGDPGVEICTH (peptide, not shown: large carriers) [Phage clone J457A04 displaying Peptide-20] | 0.092
8 | GGLECFDPEIPEAFCI (peptide, not shown: large carriers) [Phage clone J466C07 displaying Peptide-24] | 0.053
9 | GGQGCGTIADPEPHCW (peptide, not shown: large carriers) [Phage clone J466C02 displaying Peptide-25] | 0.061
10 | GGLGCNDIDPGEQCIV (peptide, not shown: large carriers) [Phage clone J465D07 displaying Peptide-23] | 0.055

From patent publication US20240376226A1
